# Measurements from patent US20180009892A1 (EUREKA THERAPEUTICS, published 2018).
# Where a chain is given by its changes, count along the chain named.
# B1: Antibody 601-4 (antibody, V domains shown)
# VH: EVQLVQSGPGLVKPSGTLSLTCAVSGGSISSSNWWSWVRQPPGKGLEWIGEIYHSGSTNYNPSLKSRVTISVDKSKNQFSLKLGSVTAADTATYYCARDLWLGEWDLWGQGTLVTVSS
# VL: QSVLTQPPSASGAPGQRVTISCSGGISNVGTNGVNWYQHLPGTAPKLLVDAMNQRPSGVPDRFSGSRSGTSGSLAITGLRSEDEADYYCATWDDSLSGVLFGGGTKLTVLG
# B2: Antibody 601-37 (antibody, V domains shown)
# VH: EVQLVQSGAEVKKPGASVKVSCKASGYTFNNYGFSWVRQAPGQGLEWMGWISVYNGNTNYAQKLQGRVTMTTDTSTSTAYMELRSLRSDDTAVYYCARDYYSDSSGYWDDAFDIWGQGTMVTVSS
# VL: AIRMTQSPSSLSASVGDRVTITCQASQDISNYLNWYQQKPGKAPKLLIYAASSLQSGVPSRFSGSGSGTDFTLTISSLQPEDFATYYCQQSYSTPFTFGPGTKVDIK
# B3: Antibody 601-141 (antibody, V domains shown)
# VH: B2 VH with E1Q, V5Q, Y27H, N30S, F34I, V53T, M120T
# VL: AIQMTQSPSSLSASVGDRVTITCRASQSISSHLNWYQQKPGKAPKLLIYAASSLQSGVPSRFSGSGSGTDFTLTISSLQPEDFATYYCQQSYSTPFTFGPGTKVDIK
# B4: Antibody 601-9 (antibody, V domains shown)
# VH: QLQLQESGPGVVKPSGTLSLTCTVSGGSISRSDGYWGWVRQPPGKGLEWIGSIYDTGTTYYSPSLKSRLIISVDTSKNQFSLTLNSVTAADTAVYYCASMGGLRSSSSDAFHTWGPGTMVTVSS
# VL: QSVLTQPPSVSVAPGETARITCGGTNIGSESVHWYQQRPGQAPVLVVYDDTDRPSGIPERFSGSNSGNTATLTISRVEAGDGADYYCQVWDSVSDRYVFGTGTKVTVL
# B5: Antibody 601-66 (antibody, V domains shown)
# VH: QVQLVQSGAEVKEPGASVKVSCKASGYTFRNSGITWVRQAPGQGLEWMGWINPNSGGAMYVDNFQGRATMTRDTSINTAYMELRSLSSDDTAVYYCARGMADLIDVFDIWGQGTLVTVSS
# VL: TQPALTQPASVSGSPGQSITISCTGTSSDFGDYDYVSWYQQHPGKAPKLMIYDVSDRPSGVSNRFSGSKSGNTASLTISGLQAEDEADYFCSSFTTSSTLVFGGGTKLTVL
# B6: Antibody 601-70 (antibody, V domains shown)
# VH: EVQLVQSGAELKKPGSSVRVSCKTSGGSFKTHGISWVRQAPGQGLEWMGWINPNSGGALYVDNFQGRATMTRDTSINTAYMELRSLSSDDTAVYYCARGMADLIDVFDIWGQGTMVTVSS
# VL: B5 VL
# B7: Antibody 601-65 (antibody, V domains shown)
# VH: QVQLQQSGPGLVKPSQTLSLTCAISGDSVSSNSATWNWIRQSPSRGLEWLGRTYYRSKWYNDYAVSVKSRIIINPDTSKNQFSLQLNSVTPEDTAVYYCARGVRAFDIWGQGTTVTVSS
# VL: QSVLTQPPSVSGTPGQRVTIFCSGGSNNIGRSSVYWYRQAAGTAPKLLIYKTDQRPSGVPDRFAASKSGASASLAISGLRSEDEADYHCATWDDSLSAVVFGGGTKLTVL
# B8: Antibody 601-147 (antibody, V domains shown)
# VH: QMQLVQSGAEVKKPGASVKVSCKASGYTFSRYYIHWVRQAPGQGLEWMGLINPGGGSTNYAQKFQGRVTMTRDTSTNTVYLELSSLRSDDTAVYYCARDYGTIDARRFDFWGQGTLVTVSS
# VL: QSALTQPPSASGTPGQRVTISCSGSSSNIGSNYVYWYQQLPGTAPKLLIYRNNQRPSGVPDRFSGSKSGTSASLAISGLRSEDEADYYCAAWDDSLSGYVFGTGTKVTVL
# B9: Antibody 601-50 (antibody, V domains shown)
# VH: B8 VH with M2V, V5Q, Q39R
# VL: QSALTQPPSASGTPGQRVTISCPGSSSNIGSNYVYWYQQLPGTAPKLLIYRNNQRPSGVPDRFSGSKSGTSATLGITGLQTGDEADYYCGTWDSSLSAYVFGTGTKVTVL
# B10: Antibody 601-149 (antibody, V domains shown)
# VH: EAQLVESGGGLVKPGGSLRLSCAASGFTFSDYYMGWVRQAPGKGLKWLSYISDRAHTIYDTDSVKGRFTISRDDAKSSLYLRMNNLRVEDTAVYYCARAVGAGEGFDYWGQGTLVTVSS
# VL: DIQLTQSPSSLSASVGDRVTITCQASQDVRNYLNWYQQKPGKAPNLLIYDATNLESGVPSRFSGSGSGTDFTFTISSLQPEDFATYYCQQYDNLPLSFGGGTKVEIK
# B11: Antibody 601-87 (antibody, V domains shown)
# VH: QVQLQESGPGLVKSSETLSLTCTVSGGSMNNYYWSWIRQPAGKGLEWMGRIYSSGSTNYNPALKSRVTMSVDTSKNQFSLNLSSVTAADTAIYYCARASWSGTYWALFDYWGQGTLVTVSS
# VL: ETTLTQSPAFMSATPGDKVNISCKASQDIDDDLNWYQQKPGEAPILIIQEATTLVPGIPPRFSGSGFGTDFTLTINSMQSEDVAYYFCLQHDNFPPTFGQGTKVEIK
# B12: P601-43 (scFv, V domains shown)
# VH: B2 VH with E1Q, V5Q, K19R, T28S, N30G, Y32N, F34I, S35T, V53T, M120T
# VL: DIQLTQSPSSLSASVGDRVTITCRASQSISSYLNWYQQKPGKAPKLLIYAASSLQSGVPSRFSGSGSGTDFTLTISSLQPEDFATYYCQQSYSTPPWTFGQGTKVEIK
# B13: P601-28 (scFv, V domains shown)
# VH: EVQLVQSGGDLVQPGGSLRLSCAASGFTFSSYSMNWVRQAPGKGLEWVSSISSSSSYIYYADSVKGRFTISRDNAKNSLYLQMNSLRAEDTAVYYCARGLGGWTHDAFDIWGQGTTVTVSS
# VL: QSALTQPASVSGSPGQSITISCTGTSSDVGGYNYVSWYQQHPGKAPKLMIFDVSNRPSGVSNRFSGSKSGNTASLTISGLQAEDEADYYCSSYTSSSTLFGGGTKLTVL
# B14: P601-14 (scFv, V domains shown)
# VH: QVQLVQSGAEVKKPGESLKISCKDSGYSFTNYWLGWVRQMPGKGLEWMGIIYPGDSDTRYSPSFRGQVTISADKSISTAYLQWSSLKASDTAMYYCARLNLATHTAFDIWGQGTTVTVSS
# VL: QSVLTQPASVSGSPGQSITISCTGTSSDVGGYNYVSWYQQHPGKAPKLMIYDVSNRPSGVSNRFSGSKSGNTASLTISGLQAEDEADYYCSSYTSSSTLWVFGGGTKLTVLG
# B15: P601-57 (scFv, V domains shown)
# VH: EVQLVQSGAEVKKPGSSVKISCKASGGAFTNFGISWVRQAPGQGLEWMGWISTYNSETNYAQKLQGRVTMTTDTSTSTAYMELRSLRSDDTAVYYCARDYYSDSSGYWDDAFDIWGQGTLVTVSS
# VL: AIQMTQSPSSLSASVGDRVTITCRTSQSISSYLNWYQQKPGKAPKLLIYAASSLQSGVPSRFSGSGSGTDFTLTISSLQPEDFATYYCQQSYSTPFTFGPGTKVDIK
# B16: P601-1 (scFv, V domains shown)
# VH: EVQLVESGGGLVKPGGSLRLSCAASGFTFSDYYMSWIRQAPGKGLEWVSYISDSTNTIYYADSVKGRFTVSRDNPKNSLYLQMISLRAEDTAVYYCARAVGAGEGFDHWGQGTLVTVSS
# VL: not shown
# Target: T1, ROR1 extracellular domain Fc-fusion, dimer (human, UniProt Q01973 30-406)
# T1 construct: also called ROR1 dimer; hROR1 dimeric ECD-Fc fusion protein; not shown: Fc part
# T1 sequence (Q01973 30-406): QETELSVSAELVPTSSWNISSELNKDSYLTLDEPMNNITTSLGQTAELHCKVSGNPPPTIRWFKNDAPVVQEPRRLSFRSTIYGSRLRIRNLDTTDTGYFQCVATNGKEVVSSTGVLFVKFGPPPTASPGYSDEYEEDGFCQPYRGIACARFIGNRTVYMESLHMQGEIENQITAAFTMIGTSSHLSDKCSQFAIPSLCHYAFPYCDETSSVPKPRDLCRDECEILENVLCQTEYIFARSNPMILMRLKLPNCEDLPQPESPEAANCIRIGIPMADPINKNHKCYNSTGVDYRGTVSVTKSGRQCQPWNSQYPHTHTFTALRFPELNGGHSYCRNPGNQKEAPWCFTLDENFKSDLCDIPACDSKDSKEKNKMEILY
# Experiment: SPR, immobilised ROR1 dimer, antibody injected, 1:1 model; apparent affinity
# Method: (§1) The binding affinities of ROR1 extracellular domain dimer and monomer for anti-ROR1 antibodies were determined by surface plasmon resonance (SPR). ROR1 extracellular domain Fc-fusion, “dimer,” and ROR1 extracellular domain Fc fusion:Fc heterodimer, “monomer,” are the dimer and monomeric forms of ROR1 used for affinity analysis, respectively. Briefly, ROR1 dimer and monomer were directly immobilized to a CM4 chip using an amine coupling kit and 100 mM ethylenediamine in 100 mM Sodium Borate buffer, pH 8.0 as the blocking reagent. Approximately 100-150 RU of ROR1 dimer and monomer were immobilized on separate flow cells and an un-derivatized flow cell was used as a reference control. […] Dissociation was followed for 180 seconds. The association constant, dissociation constant, and affinity of each anti-ROR1 antibody was calculated using the Biacore T200 Evaluation Software 1:1 binding model.
# (§2) Sensorgrams were normalized to 100 RU using the “binding stability point” at the end of the association phase but before the dissociation phase.
row,Binder,Kd
1,B1,0.2 nM
2,B2,1.7 nM
3,B3,11.9 nM
4,B4,15.3 nM
5,B5,1.7 nM
6,B6,3.5 nM
7,B7,6.4 nM
8,B8,0.9 nM
9,B9,1.1 nM
10,B10,0.1 nM
11,B11,0.8 nM

# Target: T2, human ROR2-ECD (human, UniProt Q01974 34-403)
# T2 construct: extracellular domain; also called hROR2
# T2 sequence (Q01974 34-403): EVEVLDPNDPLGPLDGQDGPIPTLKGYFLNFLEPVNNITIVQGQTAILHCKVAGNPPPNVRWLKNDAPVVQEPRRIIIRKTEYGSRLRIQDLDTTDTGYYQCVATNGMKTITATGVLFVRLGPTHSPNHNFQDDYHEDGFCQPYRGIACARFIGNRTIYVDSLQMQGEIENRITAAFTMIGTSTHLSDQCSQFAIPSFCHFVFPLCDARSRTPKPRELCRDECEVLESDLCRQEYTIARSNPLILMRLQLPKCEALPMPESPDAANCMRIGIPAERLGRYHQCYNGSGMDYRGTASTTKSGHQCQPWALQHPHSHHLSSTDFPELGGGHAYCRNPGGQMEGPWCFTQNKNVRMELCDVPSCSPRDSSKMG
# Experiment: phage antibody protein ELISA
# Method: (§3) Binding specificities of the 45 phage antibodies were determined by protein ELISA against human ROR1-ECD, human ROR2-ECD and mouse ROR1-ECD (FIG. 12).
row,Binder,binding result
1,B12,no binding
2,B13,no binding
3,B14,no binding
4,B15,no binding
5,B16,no binding

# Target: T3, mouse ROR1-ECD (mouse, UniProt Q9Z139 30-406)
# T3 construct: extracellular domain; also called mROR1
# T3 sequence (Q9Z139 30-406): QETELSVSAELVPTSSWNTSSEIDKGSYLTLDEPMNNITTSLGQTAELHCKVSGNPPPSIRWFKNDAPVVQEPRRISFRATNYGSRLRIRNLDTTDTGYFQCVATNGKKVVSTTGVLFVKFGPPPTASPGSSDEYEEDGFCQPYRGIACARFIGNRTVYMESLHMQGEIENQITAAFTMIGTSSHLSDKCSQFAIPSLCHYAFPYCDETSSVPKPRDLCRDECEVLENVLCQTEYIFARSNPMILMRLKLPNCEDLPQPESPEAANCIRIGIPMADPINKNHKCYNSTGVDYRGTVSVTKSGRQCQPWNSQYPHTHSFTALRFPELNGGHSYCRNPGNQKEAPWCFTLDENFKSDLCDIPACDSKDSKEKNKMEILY
# Experiment: phage antibody protein ELISA
# Method: as §3
row,Binder,binding result
1,B13,binds
2,B14,binds
3,B16,binds

# Target: T4, human ROR1 extracellular domain (ECD) protein (human, UniProt Q01973 30-406)
# T4 construct: also called hROR1-ECD; human ROR1-ECD
# T4 sequence (Q01973 30-406 limits assumed): as the sequence (Q01973 30-406) above
# Experiment: competitive phage ELISA: soluble ROR1 against ROR1-coated plate
# Method: Purified phage antibodies were first diluted serially in PBST buffer, and tested for binding to a ROR1-coated plate. The dilution that gave 50-80% saturating signal was used in the solution binding assay in which phage were first incubated with increasing concentration of ROR1 for one to two hours, and then transferred to a ROR1-coated plate for 10-15 minutes to capture the unbound phage.
row,Binder,IC50
1,B12,0.23 nM
2,B13,8.05 nM
3,B14,3.22 nM
4,B15,4.08 nM
5,B16,0.11 nM

# Target: T5, ROR1 extracellular domain Fc fusion:Fc heterodimer, monomer (human)
# T5 construct: Heterodimer of one ROR1 ECD-Fc chain and one Fc chain; also called ROR1 monomer; hROR1 monomeric ECD-Fc fusion protein; not shown: Fc part; Fc alone
# T5 sequence (Q01973 30-406, one chain of several): as the sequence (Q01973 30-406) above
# Experiment: SPR, immobilised ROR1 monomer, antibody injected, 1:1 model
# Method: as §1, §2
Binder,Kd,koff,kon
B1,0.3 nM,0.0016 s⁻¹,4.6e+06 M⁻¹ s⁻¹
B2,3 nM,0.0027 s⁻¹,920000 M⁻¹ s⁻¹
B3,20.6 nM,0.026 s⁻¹,1.2e+06 M⁻¹ s⁻¹
B4,27.6 nM,0.017 s⁻¹,630000 M⁻¹ s⁻¹
B5,2.4 nM,0.0059 s⁻¹,2.5e+06 M⁻¹ s⁻¹
B6,5.4 nM,0.019 s⁻¹,3.6e+06 M⁻¹ s⁻¹
B7,6.6 nM,0.011 s⁻¹,1.7e+06 M⁻¹ s⁻¹
B8,2.8 nM,0.0017 s⁻¹,590000 M⁻¹ s⁻¹
B9,1.5 nM,0.0016 s⁻¹,1.1e+06 M⁻¹ s⁻¹
B10,0.4 nM,0.00069 s⁻¹,1.6e+06 M⁻¹ s⁻¹
B11,2.2 nM,0.0013 s⁻¹,600000 M⁻¹ s⁻¹

# Target: T1, ROR1 extracellular domain Fc-fusion, …
# Experiment: SPR, immobilised ROR1 dimer, antibody injected, 1:1 model
# Method: as §1, §2
Binder,koff,kon
B1,0.00076 s⁻¹,3.6e+06 M⁻¹ s⁻¹
B2,0.0018 s⁻¹,1e+06 M⁻¹ s⁻¹
B3,0.022 s⁻¹,1.8e+06 M⁻¹ s⁻¹
B4,0.021 s⁻¹,1.4e+06 M⁻¹ s⁻¹
B5,0.0051 s⁻¹,3.1e+06 M⁻¹ s⁻¹
B6,0.018 s⁻¹,5.1e+06 M⁻¹ s⁻¹
B7,0.0072 s⁻¹,1.1e+06 M⁻¹ s⁻¹
B8,0.00063 s⁻¹,680000 M⁻¹ s⁻¹
B9,0.0011 s⁻¹,940000 M⁻¹ s⁻¹
B10,0.00023 s⁻¹,1.9e+06 M⁻¹ s⁻¹
B11,0.00058 s⁻¹,760000 M⁻¹ s⁻¹
